# Results published in the supplement of paper PMC10065799, “High-throughput profiling of sequence recognition by tyrosine kinases and SH2 domains using bacterial peptide display” (eLife, 2023).
# Molecular target: FGFR3 (UniProt P22607)
# Experiment: phosphorylation enrichment, bacterial display (enrichment ratio); higher = better substrate or ligand; peptides without Tyr show the background
# 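Note: 11-residue human phosphosite peptides and single-mutation variants displayed on the E. coli surface, counted by deep sequencing, each peptide's frequency after selection divided by its frequency in the unselected input library; frequency after pTyr selection over input frequency; kinase dosed for 20-30% of maximal phosphorylation in three min.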
# Chain of FGFR3 (P22607 whole entry, looked up): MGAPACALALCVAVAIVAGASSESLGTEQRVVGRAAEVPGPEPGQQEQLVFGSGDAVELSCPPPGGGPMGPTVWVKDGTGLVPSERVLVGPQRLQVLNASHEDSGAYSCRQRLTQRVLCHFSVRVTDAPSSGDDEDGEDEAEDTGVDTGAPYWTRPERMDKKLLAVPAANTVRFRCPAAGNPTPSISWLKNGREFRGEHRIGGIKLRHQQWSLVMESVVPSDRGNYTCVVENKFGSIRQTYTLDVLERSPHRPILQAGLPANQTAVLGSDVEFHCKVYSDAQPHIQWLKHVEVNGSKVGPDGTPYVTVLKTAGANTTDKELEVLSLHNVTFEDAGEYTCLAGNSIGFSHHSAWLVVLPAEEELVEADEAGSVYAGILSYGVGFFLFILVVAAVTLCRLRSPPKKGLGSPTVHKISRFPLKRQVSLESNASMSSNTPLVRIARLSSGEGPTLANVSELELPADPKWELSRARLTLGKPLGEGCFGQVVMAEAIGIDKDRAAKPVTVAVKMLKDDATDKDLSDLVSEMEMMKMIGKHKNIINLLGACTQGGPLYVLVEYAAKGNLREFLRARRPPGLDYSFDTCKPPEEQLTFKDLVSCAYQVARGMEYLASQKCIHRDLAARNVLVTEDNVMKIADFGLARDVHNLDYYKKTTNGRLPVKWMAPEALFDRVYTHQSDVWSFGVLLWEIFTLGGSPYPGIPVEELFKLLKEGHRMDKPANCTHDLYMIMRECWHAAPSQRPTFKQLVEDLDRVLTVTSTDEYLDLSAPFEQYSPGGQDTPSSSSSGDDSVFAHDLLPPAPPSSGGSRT
row,Sequence,phosphorylation enrichment
1,LVGTPYWMAPE [PAK5_Y608],1.84
2,EEGNPSFSSAR [MCCC2_Y520_Y520S_YF],0.623
3,FPRAWYRRSIA [KIAA1109_Y4272],0.381
4,NSNSDYVDILP [SH2D1B_Y127_V130I],3.11
5,PNKAVYTKMMT [G6PD_Y401_E398K],0.423
6,CTNIHYNFMCN [TP53_Y234_T231N_YF],0.714
7,QKINNYLTVPA [SLC9A1_Y683],0.445
8,FGYPGYQSKHY [TIMP3_Y177],0.546
9,AKIDGYITSYR,0.556
10,YRTGHYLCNAC [GATA1_Y223_D218Y],0.41
11,FHRQLYHKCTH [F12_Y58_YF],0.442
12,EQFELYCEMGS [CBL_Y371_YF],1.54
13,RMETAYGPSVT [MXRA5_Y2717_E2716A],0.529
14,AADGRYEVLFL [SEMA3F_Y478],0.822
15,RRFLFYFSFLL [PTEN_Y177_V175L_YF],0.508
16,CNNFICGGCRG [SPINT2_Y163_Y163C],0.644
17,LATINYPFEKG [NDUFS8_Y84_P79L],0.576

row,Sequence,phosphorylation enrichment
1,SHSMRYFDTSV [HLA-C_Y31_A35S],0.463
2,ADKSAYLMGVN [MYH7_Y386_L390V],0.466
3,RTESQYQENRG [LRCH3_Y354_R350T],0.591
4,SRASFYRKGGC [ALK_Y1283_Y1278S_YF],0.496
5,TMEDSYRKQVV [KRAS_Y40_I36M],0.595
6,DAGTDYVGISC [FREM2_Y2061_R2066C],0.959
7,SVVVPYETPEV [TP53_Y220_P222T],0.774
8,QSKGIYYVQLE [MGAT4B_Y262],3
9,DYYDLYGGEKL [PTPN11_Y66_F71L],14.1
10,GLIPAYHWVIM [NMNAT1_Y64_R66W],6.04
11,VTPVMYTFDEF [COL10A1_Y623_G618V_YF],0.654
12,KEEEDYREENN [BMS1_Y651_K652R],0.79
13,PRRRFYVVACD [RNASE3_Y134_G130R],0.656
14,HAVFIYDICHV [TWNK_Y508_V507I_YF],0.956
15,YKPGFYNLKEK [LAMA1_Y490_C485Y],0.402
16,DFKIIYIAPMR [SNRNP200_Y540],0.616

# Molecular target: Hck (UniProt P08631)
# Sequence (P08631 whole entry, looked up): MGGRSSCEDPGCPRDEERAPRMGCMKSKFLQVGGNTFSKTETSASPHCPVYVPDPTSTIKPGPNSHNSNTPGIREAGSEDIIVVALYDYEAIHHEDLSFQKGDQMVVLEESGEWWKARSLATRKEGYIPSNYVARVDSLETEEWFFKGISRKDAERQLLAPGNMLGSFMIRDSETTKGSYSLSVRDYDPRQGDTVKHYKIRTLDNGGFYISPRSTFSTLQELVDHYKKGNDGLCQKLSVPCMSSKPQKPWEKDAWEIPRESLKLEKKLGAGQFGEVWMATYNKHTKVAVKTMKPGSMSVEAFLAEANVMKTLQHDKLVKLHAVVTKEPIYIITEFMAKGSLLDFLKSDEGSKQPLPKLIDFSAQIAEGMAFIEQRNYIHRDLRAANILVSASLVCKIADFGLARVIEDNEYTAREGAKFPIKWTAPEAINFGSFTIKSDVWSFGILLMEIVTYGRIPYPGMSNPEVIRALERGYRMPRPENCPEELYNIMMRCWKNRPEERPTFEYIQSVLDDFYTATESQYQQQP
# Experiment: as above
row,Sequence,phosphorylation enrichment
1,LVGTPYWMAPE [PAK5_Y608],0.459
2,EEGNPSFSSAR [MCCC2_Y520_Y520S_YF],0.395
3,FPRAWYRRSIA [KIAA1109_Y4272],0.413
4,NSNSDYVDILP [SH2D1B_Y127_V130I],0.623
5,PNKAVYTKMMT [G6PD_Y401_E398K],0.437
6,CTNIHYNFMCN [TP53_Y234_T231N_YF],0.426
7,QKINNYLTVPA [SLC9A1_Y683],0.689
8,FGYPGYQSKHY [TIMP3_Y177],0.414
9,AKIDGYITSYR,0.407
10,YRTGHYLCNAC [GATA1_Y223_D218Y],0.376
11,FHRQLYHKCTH [F12_Y58_YF],0.425
12,EQFELYCEMGS [CBL_Y371_YF],2.27
13,RMETAYGPSVT [MXRA5_Y2717_E2716A],0.63
14,AADGRYEVLFL [SEMA3F_Y478],0.792
15,RRFLFYFSFLL [PTEN_Y177_V175L_YF],0.541
16,CNNFICGGCRG [SPINT2_Y163_Y163C],0.504
17,LATINYPFEKG [NDUFS8_Y84_P79L],0.401

row,Sequence,phosphorylation enrichment
1,SHSMRYFDTSV [HLA-C_Y31_A35S],0.393
2,ADKSAYLMGVN [MYH7_Y386_L390V],0.401
3,RTESQYQENRG [LRCH3_Y354_R350T],0.653
4,SRASFYRKGGC [ALK_Y1283_Y1278S_YF],0.477
5,TMEDSYRKQVV [KRAS_Y40_I36M],0.425
6,DAGTDYVGISC [FREM2_Y2061_R2066C],0.478
7,SVVVPYETPEV [TP53_Y220_P222T],0.56
8,QSKGIYYVQLE [MGAT4B_Y262],2.22
9,DYYDLYGGEKL [PTPN11_Y66_F71L],5.89
10,GLIPAYHWVIM [NMNAT1_Y64_R66W],0.543
11,VTPVMYTFDEF [COL10A1_Y623_G618V_YF],0.531
12,KEEEDYREENN [BMS1_Y651_K652R],0.65
13,PRRRFYVVACD [RNASE3_Y134_G130R],0.705
14,HAVFIYDICHV [TWNK_Y508_V507I_YF],2.59
15,YKPGFYNLKEK [LAMA1_Y490_C485Y],0.397
16,DFKIIYIAPMR [SNRNP200_Y540],0.556

# Molecular target: Fes (UniProt P07332)
# Sequence (P07332 whole entry, looked up): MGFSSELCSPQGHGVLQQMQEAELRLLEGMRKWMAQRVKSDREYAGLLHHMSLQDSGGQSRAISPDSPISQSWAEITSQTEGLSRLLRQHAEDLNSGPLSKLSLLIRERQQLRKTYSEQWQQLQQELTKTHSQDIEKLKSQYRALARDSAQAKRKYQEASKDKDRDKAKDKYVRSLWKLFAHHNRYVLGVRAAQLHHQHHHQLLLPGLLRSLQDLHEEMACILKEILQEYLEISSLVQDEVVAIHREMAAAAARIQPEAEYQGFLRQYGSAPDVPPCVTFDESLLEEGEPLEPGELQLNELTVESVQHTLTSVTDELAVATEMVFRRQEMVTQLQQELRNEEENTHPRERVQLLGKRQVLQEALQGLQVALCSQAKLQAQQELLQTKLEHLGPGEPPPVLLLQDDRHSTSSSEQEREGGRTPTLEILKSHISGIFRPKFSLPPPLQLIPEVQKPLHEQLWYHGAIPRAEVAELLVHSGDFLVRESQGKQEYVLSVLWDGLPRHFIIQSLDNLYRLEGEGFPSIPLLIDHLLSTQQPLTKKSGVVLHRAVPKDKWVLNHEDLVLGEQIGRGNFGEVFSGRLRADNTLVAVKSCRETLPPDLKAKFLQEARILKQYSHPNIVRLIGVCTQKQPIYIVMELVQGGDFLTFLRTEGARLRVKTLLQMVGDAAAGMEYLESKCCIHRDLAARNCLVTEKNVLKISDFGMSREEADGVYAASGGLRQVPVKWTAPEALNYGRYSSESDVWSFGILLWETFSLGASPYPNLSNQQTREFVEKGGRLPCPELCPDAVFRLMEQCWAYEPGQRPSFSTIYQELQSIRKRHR
# Experiment: as above
row,Sequence,phosphorylation enrichment
1,LVGTPYWMAPE [PAK5_Y608],1.15
2,EEGNPSFSSAR [MCCC2_Y520_Y520S_YF],0.876
3,FPRAWYRRSIA [KIAA1109_Y4272],0.55
4,NSNSDYVDILP [SH2D1B_Y127_V130I],1.22
5,PNKAVYTKMMT [G6PD_Y401_E398K],0.562
6,CTNIHYNFMCN [TP53_Y234_T231N_YF],0.974
7,QKINNYLTVPA [SLC9A1_Y683],0.727
8,FGYPGYQSKHY [TIMP3_Y177],0.8
9,AKIDGYITSYR,0.763
10,YRTGHYLCNAC [GATA1_Y223_D218Y],0.506
11,FHRQLYHKCTH [F12_Y58_YF],0.76
12,EQFELYCEMGS [CBL_Y371_YF],1.68
13,RMETAYGPSVT [MXRA5_Y2717_E2716A],0.718
14,AADGRYEVLFL [SEMA3F_Y478],1.01
15,RRFLFYFSFLL [PTEN_Y177_V175L_YF],0.794
16,CNNFICGGCRG [SPINT2_Y163_Y163C],0.902
17,LATINYPFEKG [NDUFS8_Y84_P79L],0.914

row,Sequence,phosphorylation enrichment
1,SHSMRYFDTSV [HLA-C_Y31_A35S],0.576
2,ADKSAYLMGVN [MYH7_Y386_L390V],0.661
3,RTESQYQENRG [LRCH3_Y354_R350T],1
4,SRASFYRKGGC [ALK_Y1283_Y1278S_YF],0.627
5,TMEDSYRKQVV [KRAS_Y40_I36M],0.774
6,DAGTDYVGISC [FREM2_Y2061_R2066C],0.961
7,SVVVPYETPEV [TP53_Y220_P222T],1.41
8,QSKGIYYVQLE [MGAT4B_Y262],1.42
9,DYYDLYGGEKL [PTPN11_Y66_F71L],1.5
10,GLIPAYHWVIM [NMNAT1_Y64_R66W],1.25
11,VTPVMYTFDEF [COL10A1_Y623_G618V_YF],1.19
12,KEEEDYREENN [BMS1_Y651_K652R],1.24
13,PRRRFYVVACD [RNASE3_Y134_G130R],0.667
14,HAVFIYDICHV [TWNK_Y508_V507I_YF],1.56
15,YKPGFYNLKEK [LAMA1_Y490_C485Y],0.628
16,DFKIIYIAPMR [SNRNP200_Y540],1.22

# Molecular target: EPHB1 (UniProt P54762)
# Sequence (P54762 whole entry, looked up): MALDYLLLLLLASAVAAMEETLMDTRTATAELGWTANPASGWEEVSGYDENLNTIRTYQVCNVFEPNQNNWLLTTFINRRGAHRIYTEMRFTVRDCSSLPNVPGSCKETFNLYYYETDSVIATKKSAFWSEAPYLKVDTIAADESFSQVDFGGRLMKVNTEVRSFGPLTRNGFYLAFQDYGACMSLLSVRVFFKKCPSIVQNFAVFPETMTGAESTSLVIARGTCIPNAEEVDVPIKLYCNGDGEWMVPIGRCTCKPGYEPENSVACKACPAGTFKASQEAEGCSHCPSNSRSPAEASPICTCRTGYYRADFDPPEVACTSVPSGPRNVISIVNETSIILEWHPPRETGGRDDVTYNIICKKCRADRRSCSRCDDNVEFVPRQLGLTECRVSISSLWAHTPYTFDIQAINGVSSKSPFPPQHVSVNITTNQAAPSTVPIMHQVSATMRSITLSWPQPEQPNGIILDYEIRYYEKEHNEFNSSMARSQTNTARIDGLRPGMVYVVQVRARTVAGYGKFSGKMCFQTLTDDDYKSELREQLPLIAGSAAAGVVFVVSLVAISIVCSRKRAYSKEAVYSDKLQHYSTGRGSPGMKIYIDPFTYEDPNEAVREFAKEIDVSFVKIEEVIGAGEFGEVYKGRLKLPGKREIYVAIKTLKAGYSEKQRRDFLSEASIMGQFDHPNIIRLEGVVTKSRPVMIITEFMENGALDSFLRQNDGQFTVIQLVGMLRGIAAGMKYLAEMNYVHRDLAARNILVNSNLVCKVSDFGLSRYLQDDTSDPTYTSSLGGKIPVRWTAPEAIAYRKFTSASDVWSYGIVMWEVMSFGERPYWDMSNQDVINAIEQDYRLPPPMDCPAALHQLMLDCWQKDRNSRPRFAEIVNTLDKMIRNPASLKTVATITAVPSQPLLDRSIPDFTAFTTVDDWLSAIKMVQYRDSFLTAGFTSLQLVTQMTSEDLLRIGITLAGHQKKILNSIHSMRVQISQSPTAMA
# Experiment: as above
row,Sequence,phosphorylation enrichment
1,LVGTPYWMAPE [PAK5_Y608],0.775
2,EEGNPSFSSAR [MCCC2_Y520_Y520S_YF],0.418
3,FPRAWYRRSIA [KIAA1109_Y4272],0.394
4,NSNSDYVDILP [SH2D1B_Y127_V130I],3.31
5,PNKAVYTKMMT [G6PD_Y401_E398K],0.467
6,CTNIHYNFMCN [TP53_Y234_T231N_YF],0.436
7,QKINNYLTVPA [SLC9A1_Y683],1.34
8,FGYPGYQSKHY [TIMP3_Y177],0.512
9,AKIDGYITSYR,0.52
10,YRTGHYLCNAC [GATA1_Y223_D218Y],0.341
11,FHRQLYHKCTH [F12_Y58_YF],0.855
12,EQFELYCEMGS [CBL_Y371_YF],3.34
13,RMETAYGPSVT [MXRA5_Y2717_E2716A],0.413
14,AADGRYEVLFL [SEMA3F_Y478],0.731
15,RRFLFYFSFLL [PTEN_Y177_V175L_YF],0.493
16,CNNFICGGCRG [SPINT2_Y163_Y163C],0.466
17,LATINYPFEKG [NDUFS8_Y84_P79L],0.565

row,Sequence,phosphorylation enrichment
1,SHSMRYFDTSV [HLA-C_Y31_A35S],0.482
2,ADKSAYLMGVN [MYH7_Y386_L390V],0.418
3,RTESQYQENRG [LRCH3_Y354_R350T],0.675
4,SRASFYRKGGC [ALK_Y1283_Y1278S_YF],0.431
5,TMEDSYRKQVV [KRAS_Y40_I36M],0.556
6,DAGTDYVGISC [FREM2_Y2061_R2066C],0.578
7,SVVVPYETPEV [TP53_Y220_P222T],0.715
8,QSKGIYYVQLE [MGAT4B_Y262],1.12
9,DYYDLYGGEKL [PTPN11_Y66_F71L],7.36
10,GLIPAYHWVIM [NMNAT1_Y64_R66W],0.755
11,VTPVMYTFDEF [COL10A1_Y623_G618V_YF],0.665
12,KEEEDYREENN [BMS1_Y651_K652R],0.63
13,PRRRFYVVACD [RNASE3_Y134_G130R],0.543
14,HAVFIYDICHV [TWNK_Y508_V507I_YF],3.04
15,YKPGFYNLKEK [LAMA1_Y490_C485Y],0.343
16,DFKIIYIAPMR [SNRNP200_Y540],0.586
